Changes are numbered by the printed parent chain.
T1: human VPAC2 receptor (human, UniProt P41587 24-438)
T1 construct: whole, on cells; CHO-S cell line stably expressing human VPAC2 (cAMP assays)
T1 sequence (looked up): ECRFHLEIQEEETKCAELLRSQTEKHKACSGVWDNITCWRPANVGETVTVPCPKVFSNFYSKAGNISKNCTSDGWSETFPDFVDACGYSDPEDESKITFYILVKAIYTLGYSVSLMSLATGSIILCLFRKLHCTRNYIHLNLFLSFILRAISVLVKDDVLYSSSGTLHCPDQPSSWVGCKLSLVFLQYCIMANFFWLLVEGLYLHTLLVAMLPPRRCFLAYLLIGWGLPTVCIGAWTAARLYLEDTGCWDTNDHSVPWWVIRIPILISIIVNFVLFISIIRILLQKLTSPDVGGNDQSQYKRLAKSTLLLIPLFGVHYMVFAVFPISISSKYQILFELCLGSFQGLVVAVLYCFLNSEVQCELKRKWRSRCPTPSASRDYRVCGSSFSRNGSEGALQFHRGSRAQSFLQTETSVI

T2: rat VPAC1 receptor (rat, UniProt P30083 31-459)
T2 sequence (looked up): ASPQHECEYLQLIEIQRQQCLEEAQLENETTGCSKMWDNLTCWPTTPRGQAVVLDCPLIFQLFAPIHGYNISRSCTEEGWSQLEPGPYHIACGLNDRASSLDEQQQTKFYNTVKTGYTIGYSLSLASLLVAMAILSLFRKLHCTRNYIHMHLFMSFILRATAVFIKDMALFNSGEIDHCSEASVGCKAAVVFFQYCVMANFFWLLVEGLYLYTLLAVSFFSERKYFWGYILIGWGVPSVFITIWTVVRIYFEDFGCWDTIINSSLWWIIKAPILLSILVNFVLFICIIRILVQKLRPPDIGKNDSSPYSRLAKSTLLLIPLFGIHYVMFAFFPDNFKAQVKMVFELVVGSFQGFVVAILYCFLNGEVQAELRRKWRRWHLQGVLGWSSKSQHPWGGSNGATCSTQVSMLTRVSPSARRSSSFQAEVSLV

T3: rat VPAC2 receptor (rat, UniProt P35000 23-437)
T3 sequence (looked up): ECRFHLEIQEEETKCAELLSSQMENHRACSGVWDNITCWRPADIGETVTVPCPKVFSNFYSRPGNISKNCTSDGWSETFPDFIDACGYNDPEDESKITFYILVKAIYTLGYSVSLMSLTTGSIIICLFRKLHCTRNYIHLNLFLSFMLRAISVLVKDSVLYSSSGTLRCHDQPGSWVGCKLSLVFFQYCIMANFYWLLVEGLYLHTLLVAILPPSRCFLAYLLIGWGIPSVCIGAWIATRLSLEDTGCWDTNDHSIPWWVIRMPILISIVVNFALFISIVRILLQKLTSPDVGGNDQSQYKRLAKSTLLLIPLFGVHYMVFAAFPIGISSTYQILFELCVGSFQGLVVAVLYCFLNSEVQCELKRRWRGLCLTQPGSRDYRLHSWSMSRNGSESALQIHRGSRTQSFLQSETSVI

B1: P517 (peptide)
peptide: HSDAVFTEQYTXLRXQLAXXXYLQXIXXGGPSSGAPPPCC
modifications: C6-HSDAVFTEQY(OMe)TOrnLRAibQLAAbuAibOrnYLQAibIOrnOrnGGPSSGAPPPC(PEG20K)C(PEG20K)-NH2
B2: P521 (peptide)
peptide: B1 peptide with L23X, X25S
modifications: C6-HSDAVFTEQY(OMe)TOrnLRAibQLAAbuAibOrnYAibQSIOrnOrnGGPSSGAPPPC(PEG20K)C(PEG20K)-NH2
B3: P523 (peptide)
peptide: B1 peptide with X25S
modifications: C6-HSDAVFTEQY(OMe)TOrnLRAibQLAAbuAibOrnYLQSIOrnOrnGGPSSGAPPPC(PEG20K)C(PEG20K)-NH2
B4: P525 (peptide)
peptide: B1 peptide with L23X
modifications: C6-HSDAVFTEQY(OMe)TOrnLRAibQLAAbuAibOrnYAibQAibIOrnOrnGGPSSGAPPPC(PEG20K)C(PEG20K)-NH2
B5: P529 (peptide)
peptide: HSDAVFTEQYTXLRXQVAAXXYLQSIXXGGPSSGAPPPS
modifications: not fully specified; C6-HSDAVFTEQY(OMe)TOrnLRK(WPEG40K)QVAAAibOrnYLQSIOrnOrnGGPSSGAPPPS-NH2
B6: P490 (peptide)
peptide: B5 peptide with Q24X, S39C
modifications: C6-HSDAVFTEQY(OMe)TOrnLRAibQVAAAibOrnYLK(CO(CH2)2SPEG20K)SIOrnOrnGGPSSGAPPPC(PEG20K)-NH2
B7: P495 (peptide)
peptide: B5 peptide with S25X, S39C
modifications: C6-HSDAVFTEQY(OMe)TOrnLRAibQVAAAibOrnYLQK(CO(CH2)2SPEG20K)IOrnOrnGGPSSGAPPPC(PEG20K)-NH2
B8: P513 (peptide)
peptide: B1 peptide with X19A, L23X, X25S
modifications: C6-HSDAVFTEQY(OMe)TOrnLRAibQLAAAibOrnYAibQSIOrnOrnGGPSSGAPPPC(PEG20K)C(PEG20K)-NH2
B9: P519 (peptide)
peptide: B1 peptide with X19A, L23X
modifications: C6-HSDAVFTEQY(OMe)TOrnLRAibQLAAAibOrnYAibQAibIOrnOrnGGPSSGAPPPC(PEG20K)C(PEG20K)-NH2

Assays:
human VPAC2 receptor [1] = target: T1, human VPAC2 receptor; experiment: filter binding, VPAC2 cell membranes, displacement of 125I-VIP
Method: Binding assays: Membrane prepared from a stable VPAC2 cell line (see Example 3) or from cells transiently transfected with human VPAC1 or PAC1 are used.
The assay plate is filled with 25 μL assay buffer, 25 μL membranes (2.5 μg) suspended in assay buffer, 25 μL agonist in assay buffer, and 25 μL tracer (about 40000 cpm) in assay buffer. The filled plate is incubated for 1 hour with shaking.
The transfer from assay plate to filter plate is conducted. The blocking buffer is aspirated by vacuum filtration and washed two times with flush buffer. 90 μL is transferred from the assay plate to the filter plate. The 90 μL transferred from assay plate is aspirated and washed three times with 200 μL flush buffer. The plastic support is removed. It is dried for 1 hour at 60° C. 30 μL Microscint is added. The count is performed.

rat VPAC1 receptor = target: T2, rat VPAC1 receptor; experiment: cell-based or functional assay
rat VPAC2 receptor = target: T3, rat VPAC2 receptor; experiment: cell-based or functional assay
human VPAC2 receptor [2] = target: T1, human VPAC2 receptor; experiment: cell-based or functional assay

Binder	IC50 (human VPAC2 receptor [1]) [nM]	Rat VPAC1 Receptor: DiscoveRx: (EC50; nM) (rat VPAC1 receptor) [nM]	Rat VPAC2 Receptor: DiscoveRx: (EC50; nM) (rat VPAC2 receptor) [nM]	Human VPAC2 Receptor: Alphascreen (EC50; nM) (human VPAC2 receptor [2]) [nM]
HSDAVFTEQYTXLRXQCAXXXYLQXIXXGGPSSGAPPPS (C6-HSDAVFTEQY(OMe)TOrnLRAibQC(PEG40K)AAbuAibOrnYLQAibIOrnOrnGGPSSGAPPPS-NH2) [P545]	79.9	380	99.5	45
HSDAVFTEQYTXLRXQVAXXXYLQXIXXGGPSSGAPPPC (C6-HSDAVFTEQY(OMe)TOrnLRAibQVAAbuAibOrnYLQAibIOrnOrnGGPSSGAPPPC(PEG40K)-NH2) [P511]	7.2	61.9	13.9	7.6
HSDAVFTEQYTXLRXQLAXXXYLQXCXXGGPSSGAPPPS (C6-HSDAVFTEQY(OMe)TOrnLRAibQLAAbuAibOrnYLQAibC(PEG40K)OrnOrnGGPSSGAPPPS-NH2) [P541]	59.8	665	102	45.8
B1	3.7	92.4	10	7.5
B2	67.1	602	33.1	22.1
HSDAVFTEQYTXLRXQVAAXXYLQSIXXGGPSSGAPPPS (C6-HSDAVFTEQY(OMe)TOrnLRAibQVAAAibK(CO(CH2)2SPEG20K)YLQSIOrnOrnGGPSSGAPPPS-NH2) [P473]	256	> 1000	25.5	26.5
B3	4.8	20.4	5.3	5.8
B4	41.8	1140	44	25
B5	192	1180	199	170
B6	13.2	> 1000	192	116
B7	142			117
B8	50.5			28.9
B9	51.6			30.3
HSDAVFTEQYTXLRXQXAAXXYLQSIXXGGPSSGAPPPS (C6-HSDAVFTEQY(OMe)TOrnLRAibQK(WPEG40K)AAAibOrnYLQSIOrnOrnGGPSSGAPPPS-NH2) [P533]				2380
